Assay results taken from IntAct's records for PubMed 20956295.

B1: Tumor necrosis factor receptor superfamily member 6 (Homo sapiens), P25445-1 (parent)
chain: MLGIWTLLPLVLTSVARLSSKSVNAQVTDINSKGLELRKTVTTVETQNLEGLHHDGQFCHKPCPPGERKARDCTVNGDEPDCVPCQEGKEYTDKAHFSSKCRRCRLCDEGHGLEVEINCTRTQNTKCRCKPNFFCNSTVCEHCDPCTKCEHGIIKECTLTSNTKCKEEGSRSNLGWLCLLLLPIPLIVWVKRKEVQKTCRKHRKENQGSHESPTLNPETVAINLSDVDLSKYITTIAGVMTLSQVKGFVRKNGVNEAKIDEIKNDNVQDTAEQKVQLLRNWHQLHGKKEAYDTLIKDLKKANLCTLAEKIQTIILKDITSDSENSNFRNEIQSLV

Variants of: B1
Settings: with cav1_human CAV1, Q03135
Chain of cav1_human CAV1, Q03135 (Q03135 whole entry): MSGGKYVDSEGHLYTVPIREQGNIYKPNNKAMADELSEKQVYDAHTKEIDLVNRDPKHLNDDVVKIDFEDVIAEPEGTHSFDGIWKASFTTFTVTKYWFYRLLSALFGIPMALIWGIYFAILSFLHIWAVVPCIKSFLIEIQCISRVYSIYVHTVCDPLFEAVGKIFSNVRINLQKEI

Row | Variant | effect of a mutation on the interaction
1 | MLGIWTLLPLVLTSVARLSSKSVNAQVTDINSKGLELRKTVTTVETQNLEGLHHDGQFCHKPCPPGERKARDCTVNGDEPDCVPCQEGKEYTDKAHFSSKCRRCRLCDEGHGLEVEINCTRTQNTKCRCKPNFFCNSTVCEHCDPCTKCEHGIIKECTLTSNTKCKEEGSRSNLGWLCLLLLPIPLIVWVKRKEVQKTSRKHRKENQGSHESPTLNPETVAINLSDVDLSKYITTIAGVMTLSQVKGFVRKNGVNEAKIDEIKNDNVQDTAEQKVQLLRNWHQLHGKKEAYDTLIKDLKKANLCTLAEKIQTIILKDITSDSENSNFRNEIQSLV [C199S] | disrupting interaction
